Measurements: a protein production outcome set (Wang et al. 2014)

Assay: label from the status in PepcDB records

| Sequence | protein production |
| --- | --- |
| MQTVGSFSEFLDDMVGRYGPRPAIQYRPRYRTLRWSYLELGTHAAKLASLLDEHGVGSGDRVFLSAENSPHWVAAFFAIAARGAVIVPLNPRSPPEQLANLVRSAGPSLVLASPRRRWEGPPLPVVDIERSGRVPSNRPATRTGPARLAEIIYTSGTTGDPKGVMLTHANLLSDLSAVARAIPLAPDDHVLSLVPLFHVYGQMTSLFCPLAAGCPVSYLTTPTTRSVLEALTHTPVTHLVAVPEVLKTMMDRLESRIGRIPGFLWPLLRGRIRARISGSLRTIVCGGAPLDPVVEEKWWALGFQVLQGYGLTETSPVIAANTPQAHRIGSVGKPLDEVELRIASDGEILVKGPMVMAGYFRDPARTEAAFADGWLKTGDAGRLDADGFLYVYGRKRYMILGPGGENVFPEDIEAVLNRTAGVTDCAVVGLESGGRTLVHAVLLADADEARAAAIVAEANRHLAPHQRIVSWSLWPEPDFPRSVTRKVKKDEVLGRLRREPSTQAVPVGRSTPLRLLLAQVAGTEAGALSDDTRLVPDLGLDSLLRIELVARIEEDLGVCLDEIDIGPLTTVADLENLLVRRQDRMPRVDAHPRWSLSPWASRLRPLAQKVFLQWWIAPFCRLRVSGLEHLAALDGPVIFMANHRSYLDSAVASFALPDRFRYRLAIAAATGVLYTRYRWAVPIGELSLNAFPLPSGPDENIRPGLELIGRLLDDGWNVLIFPEGQMNRGGLGIQPLRRGAGTIGVDMGVPVVPLVIEGTEKVMPPGRIVPRAAAPVSVRFGAPLRAGEAEPHGRMLARIEDALRRLLENSPLEHHHHHH | failed |
| MQVELIIKNLKVYNSYFKKFIKSDVLINEGKFLHIGKGYEDRLWSENIIDGEDKYIIPGLIDIHMHIESSMTIPREFSKAAIKHGVTTVVADPHEIANVFGVRGIEEFIKFKGNLDIFYGIPSSVPSTSSSLETTGEKITHNEVKRLLEYDNIICLGEVMNFKDLIEDDDSNINKIINISKEKNIPLEGHCPKIQGVDLSLYIYRGVNGDHTQQSVGSLQEKIQNGMFIEMQHKSMTLENIKFLIENNLYEHFALVTDDVMADKLVKGHLDEILKEAVKLGMSIENAIYASTYTPARRMNLLDRGTIAPGKLADFILLDSIEDFNIYEVYKNGEMVFNRDKGLKEEFFEDKSKLDYRFYNSIELNNITKESLEVKVPNKYKNKVNCRTMKVLKNTTFTEEGEVTLNVYNNILQWEKSSCALIAVFERYGKNNNISFGLVEGEIIKEGAIATTWAHDHHNLMVMGRNISDMTIAANEVINSRGGYVVSKNNEVIAKLELPIGGIISDEPIEIIGEKLGEVRNAMRDLGYNHMNEIMSFSTLSLPVSPALKITDKGLIDVKKGSIVSLFKKGLY | failed |
| MQVIAFIAPLIDKGMDPLTGVPIRQEVPRLMERTFQENQAETYVLFLINLDRFKLVNDSLGEGYGDQVLQTLVRRLLWQLPNQQWIARVSGDEFIACAAIKGELPKKETLATYISSIIQQPFQVDEVQFTMTASIGAAVYPMDGKSVEMIWNSLERALRHAKARGGNCVSWFCQELKDEWIHPFRLENDLRRAVENQELEHHHHHH | failed |
| MQVPGHAFNPVAAPYFPDHLAFLDGPMNARAQGLPRRLENIVLVADLAGTAVFAVEGAISAMRAQLDLLGVMVIAFIVALGGGVTRDLLIGATPPKAVADWRYPALALLMGGLAFVARDWVLGWSGPLLILLDAAGLGLFAVAGTQKAQNFGISPFVSMLMGTVTGVGGGVIRDIVLARIPLVLQVDLYASSAFVGAASLVIARRLGVPPLWSAWLAGTVCFALRMLSVRYGWQLPKAL | failed |
| MQVTLIQGLLIGLFALIAGIDFWLEGLYIFRPMIVCTVTGAILGNLTLGIIAGGLTELAFAGLTPVGGTQPPNPIMAGIMTVVLAYTTGKTPSTAIGLALPFSILMQYIILFYYSAFSVLTKKLDAYAANVETKKFTRLALLPTVLVALTYGVIAFLCVYGAQEPMKALVNSMPVWLSHGFEIAGNILPAVGFGLLLKSMLKAEYVPYLLLGFTAACFIKFGNLMPVAVIGISLAFIEFYHNKKQTDNEKKLKSMIESASGNGDDGDGI | failed |
| MQYRIRRENEAPEAKNAGETLWERDMMREVLLSAYRDRRRERMWKNIWRAVSTLILVALIAGIFRKDEAALQLAGNTPHTAVVNLYGEIGNGVEDQVKKLKDGMEAAYKNPQAKAIVIRANSPGGSPVVSNTAFEEIRRLKAQHPGIPVYLVAEDMCASGCYYIAAAADKIYADPSSIVGSIGVIGSSFDATGLMEKIGVKRRVKIAGSNKGMGDPFSPETPEQSKIWEEMLTGIHGEFIKAVKTGRGGRLKFRQYPDVFSGRVYTGADALKVGLVDGLGNIYSVARDVVKAPDVVDYTPKDDFGRILGRRFGAELKASVREALQAVR | failed |
| MQYVMSIIGIIAVLGLCFALSNNKSKINFRAIAIMIGFQILIGWFMFATKIGQQIIIFISKVFNKLIKLGTTGVDFLFNGIHRDFVFFLNVLLIIVFFSALLSIFSYLGVLPFIVRVVGGAISKITGLPRVESFHAVNSVFFGSSEALIVIKNDLQHFNKNRMFIICCSAMSSVSASVTASYVMMLDAKYVLAALPLNLFSSLIVCSLLTPVDTKKEDEVIQKFDRTLFGDSFIGAMINGALDGLKVAGIVAALMIAFIGVMEVVNYVISAASGAMGHAVTLQQIFGYVLSPFAFLMGIPTQDIIPAGGIMGTKIVLNEFVAILDLKDTATTLAPRTVGIVTVFLISFASISQIGAIVGTIRALSEKQGSVVSKFGWKMLFASTLASILSATIAGLFI | failed |
| MRAAGRDRAERRMPHTWSFDYFYSLPFWAALLAVAAVVRLAGGSPVLRGLALLATSNALLLAIPGFSAADLALVWAVSGVALASARTLSRSAPGSSRARRVVVVGSVVAILAFLALFKYRFLQGLLLGPFAQVLAPRASSGVVNPLVLVGVSYFSFKAIHVVVETYRGTLGRVEALAFLNYMTFFPAFISGPINRFGDFSEQLASASPALGADLRAGGERIVHGLFKKVVLVPLVMPYLLTNQARPLDQATLLDVATGLYAYALYFFFDFAGYTDLAIGGARIIGIRLPENFRQPFFQKNIRDLWTNWHMTLTSWLVDYVYWPTVRALRNLEYLRTRPVLLSVIGMNVTFVSCGIWHGEAPHFVLWGAYHGLGISVLNVYQRQKKRIRAPRIQRWFASRYSRWLGTFATFNFFAAGLALFVLDLGQIRALLRALVG | failed |
| MRAASVPFSQRTTCKGRDGFDQFQIAFASAAERDHSCDQGRRQPGGRPPIQVAAVSGFMHRQGKTPMPTLTINGRSLSVDAANDTPLLWAIREQLQMTGTKFGCGAGLCGACTVHVNGEAVRSCQTMVGDVAGKKITTIEGLSAKGDHPLQKAWIAEQVPQCGYCQSGQIMQAASLLAKNANPTKEEVVAHMDGNLCRCMTYSRIQKAIMRAATEMRTASASGNERRPT | failed |
| MRAEADPEFAAVAERIHANVGRQGFMNLVGAELSELSRGTCTIAVERRPELLQQHGFFHGGVTAFLVDNATTIAAATSRGQPALTAEYKLNLLSPAVGEKLICRARVIKPGRQVSVVAADVFCVSDGVEKHTATALASIAMLSEDVAAKTKSPAA | failed |
| MRALLLIAALLAPTAALAQQQLPLWPNGAPGFESRKAIPEQAADYWVKSVNNPSITAYLPPKETATGAALIVLPGGGHRILVIHSEGSDVAKVMNPKGVAVFVVKYRLFREEGSPYTIDHARQDAVRAVRYVRAHAAVFGVDPKRIGLMGFSAGGEAVNLAVYQGAANDPKTDAVDAVSARPDFQVLVYPGPLGVPEKVPTDTPPAFIVAANDDECCSAPPVDLLTRFRAAKVPIEFHLFQSGGHAFNMGLRSHKAALKAWPDRLFDWLADNGWLKAG | failed |
| MRAMRWILPLLLAIGVAAPARAASEWAVKDGSVQVKAHADEQGRAVVRASIEIAAPPSVVFGVILDCGRAARMSPGVKRCRVVSRAADGSEVREHTVKWGFFLPALQSRSRLSLQPDREIRFTCIGGDIRACDGFWRLEPLDGGMRTRVTYDLWATAPYAAPAGLVSSLMRRTVPQSLAALRRECEGG | failed |
| MRAPGALLARMSRLLLLLLLKVSASSALGVAPASRNETCLGESCAPTVIQRRGRDAWGPGNSARDVLRARAPREEQGAAFLAGPSWDLPAAPGRDPAAGRGAEASAAGPPGPPTRPPGPWRWKGARGQEPSETLGRGNPTALQLFLQISEEEEKGPRGAGISGRSQEQSVKTVPGASDLFYWPRRAGKLQGSHHKPLSKTANGLAGHEGWTIALPGRALAQNGSLGEGIHEPGGPRRGNSTNRRVRLKNPFYPLTQESYGAYAVMCLSVVIFGTGIIGNLAVMCIVCHNYYMRSISNSLLANLAFWDFLIIFFCLPLVIFHELTKKWLLEDFSCKIVPYIEVASLGVTTFTLCALCIDRFRAATNVQMYYEMIENCSSTTAKLAVIWVGALLLALPEVVLRQLSKEDLGFSGRAPAERCIIKISPDLPDTIYVLALTYDSARLWWYFGCYFCLPTLFTITCSLVTARKIRKAEKACTRGNKRQIQLESQMNCTVVALTILYGFCIIPENICNIVTAYMATGVSQQTMDLLNIISQFLLFFKSCVTPVLLFCLCKPFSRAFMECCCCCCEECIQKSSTVTSDDNDNEYTTELELSPFSTIRREMSTFASVGTHC | failed |
| MRCMSDDHTHVQEFFEARAADWDSRFPDDGPAHAAAVAELGLREGDRVLDAGCGTGRALPSLRAAVGSSGVVVGVDLTPAMLAAAARAGRGRDGHLLLADVTRLPLGTESLDAVFAAGLIAHLPEPAENLRELARVVRAGGTLALFHPIGRAALAARQGRQITPDDLRAEANLGPLLAGSGWRMTSYVDEDARFLALAVRVKLEHHHHHH | failed |
| MRDDVFGQSNSLTRADSAEAWDGVLLGFMAHAAVTPQHLARVLELEPDFALAHAIKGLFMLLLGRREMTPVAIEAMAAAERAAAARAITAREGHYLAALRHWLAGNPSRSVQEFEAILRAHPDDTLAMKLSHATRFVLGDPAGMRRSIERVMPAYAPDHAGRGYLLGCHAFALEETGAYDKAEIAGRQALWMVSDDAWGLHAVAHVHEMKGQSELGLDWLAGREAAWSHCNNFRYHVWWHKALMHLDQGQIDQVFDLYDSAIRKDKTDDYRDISNATSLLSRLELEGVNVGDRWEELADLSAARTEDGCLIFADLHYLLALTGDTREDAISRMLHRIKRDADMAQCDTTRRMADPGLAAAQGLEAFGEGQYGQAFDHLLTARGSMQLAGGSHAQRDVFERITIDAGLRAGRLDAVERVLDDRRAKRGGHEDTYALARRALIEAGRDDRNIHSVPAE | failed |
| MRDFGEILAENRKKKGYSQSDLVNLLSQEGIQVTTKALSKWENNAREPALHVFLTLCQLLDIEDIYESFFGENPYNIMSGLNEEGRNKLIEFADILKASKKFSPLSAKIIPFHHPVEITWEPVSAGTGNYLEDSVKETYDVGHLAPEQTDFGVRISGDSMEPLYHTDDVAWIQKKDSLANGEIGIFYLNGNTYIKELHDEPDGVYLISLNQKYRPIQVLESDSFKIFGKVIGKCKGAEIPGFHLEHHHHHH | not failed |
| MRDLITNRFTSQRTLREGSVGLLFLLGLGAFGVILLWLNRYTAAGSSYKAVVEFANAGGMQRGATVRYRGVKVGRISQIQPGPNAVEVEIEFAQSNLIIPRDVVIEANQTGLISESIIDITPKSSLPTGQTLPKPLDKNCDNSLIICNNSRLKGQIGISVDALIRSSTDFANTYTNPEFYQRVNRLLETSAQAATSVAALTQDFRGLTKSFQGQLGTFASTANTVQRATNELTVSTTKTVNQFGITADKFGTTATQASRLLSDLNSLLNTNRSSLVSALNNITETSNQLRLTVTNLSPSLNRLTQGELIKNLEALSANAAQASANLRNATESLNDPKNAVLLQQTLDSARLTFENTQKITSDLDELTGDPNFRQNLRQLVNGLSGLVSSTDQIEQQAKLATTLESMKAAADKPNITIPSLATHPSSNAVTIANNQPQVSSQEKLLQQLRDYAEQGSGEDKKQGSREQREELMKTDY | failed |
| MRDYSELEIFEGNPLDKWNDIIFHASKKLSKKELERLLELLALLETFIEKEDLEEKFESFAKALRIDEELQQKIESRKTDIVIQSMANILSGNE | not failed |
